T1: recombinant, soluble human ASGR-1 (human, UniProt P07306 62-291)
T1 construct: biotinylated in the binning assay; also called soluble huASGR-1; Soluble ASGR-1 (Amgen)
T1 sequence: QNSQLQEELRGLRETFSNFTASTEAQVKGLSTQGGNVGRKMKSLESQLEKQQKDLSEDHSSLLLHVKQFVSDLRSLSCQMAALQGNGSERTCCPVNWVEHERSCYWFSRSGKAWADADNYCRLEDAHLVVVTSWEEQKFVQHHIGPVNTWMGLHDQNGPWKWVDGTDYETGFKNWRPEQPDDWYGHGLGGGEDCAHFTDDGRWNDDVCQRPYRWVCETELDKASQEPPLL


Tests used:
[1] = target: T1, recombinant, soluble human ASGR-1; experiment: Octet BLI dissociation, pH 5.6 minus calcium
In short: (§1)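 Antibodies were captured on anti-human Fc biosensors, and soluble ASGR-1 (6 ug/ml) was associated for 2 min in Tris buffer containing 1 mM CaCl2 at pH 7.4, followed by 10 min dissociation under each test condition. The signal at the end of association was set as 100%. Percent ASGR-1 still bound after 1 min of dissociation was compared with the pH 7.4 plus calcium control, and >10% extra dissociation was scored as sensitive.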

[2] = target: T1, recombinant, soluble human ASGR-1; experiment: Octet BLI dissociation, pH 5.6 plus calcium
In short: as §1

[3] = target: T1, recombinant, soluble human ASGR-1; experiment: Octet BLI dissociation, pH 7.4 minus calcium
In short: as §1

Binder	% Change Compared to pH 7.4 + Calcium [1] [%]	% Change Compared to pH 7.4 + Calcium [2] [%]	% Change Compared to pH 7.4 + Calcium [3] [%]
192G6 (antibody, V domains shown, hybridoma mAb) VH: QVQLVESGGGVVQPGRSLRLSCAASGFTFSSYGMHWVRQAPGKGLEWVAVLWYDGTNKNYADSVKGRFTISRDNSKNTLYLQMNSLRAEDTAVYYCARDQGVGYDGLDVWGQGTTVTVSS VL: DIKMTQSPSSLSASVGDRVTITCRTSQGIGNYLAWFQQKPGKAPKSLLYKASSLQSGVPSKFSGSGSGTDFTLTISSLQPEDFATYYCQQYMTYPLTFGGGTKVEIK	-6	-6	-1
194B7 (antibody, V domains shown, hybridoma mAb) VH: QVQLVESGGGVVQPGRSLRLSCAASGFTFSSYGMHWVRQAPGKGLEWVAVIWYDGSNKNYADSVKGRFTISRDNSKNTLYLQMNSLRAEDTAVYYCARDRSKGYDGMDVWGQGTTVTVSS VL: DIQMTQSPSSLSASVGDRVTITCRASQGISKYLAWFQQKPGKAPKSLIYGASRLQSGVPSKFSGSGSGTDFTLTISSLQPEDFATYYCQHYLNYPLTFGQGTRLEIK	-4	-4	1
190F12 (antibody, V domains shown, hybridoma mAb) VH: QVQLVESGGGVVQPGRSLRLSCAASGFTFRNYGMHWVRQAPGKGLEWVAVIWFDGSNDYYADSVKGRFTISRDNSKNTLSLQMNSLRAEDTAVYYCARDRSVGYDGLDVWGQGTTVTVSS VL: DIQMTQSPSSLSASVGDRVTITCRASQGIGKYLAWFQQKPGKAPKSLIYAASSLQSGVPSKFSGSGSGTDFTLTISSLQPDDFATYYCQRYDTYPFTFGPGTKVDIK	-6	-6	-1
192E4 (antibody, V domains shown, hybridoma mAb) VH: QVQLVESGGGVVQPGRSLRLSCAASGFTFSSYGMHWVRQAPGKGLEWVAVIWYDGSNKNYVDSVRGRFTISRDNSKNTLYLQMNSLRAEDTAVYYCARDRSVGYDGMDVWGQGTTVTVSS VL: DIQMTQSPSSLSASVGDRVTITCRASQGIGNYLAWFQQKPGKAPKSLIYVVSSLQSGVPSRFSGSGSGTDFTLTISSLQPEDFATYYCQRYDTYPFTFGPGTKVDIK	-8	-9	-2
193C7 (antibody, V domains shown, hybridoma mAb) VH: QVQLVESGGGVVQPGRSLRLSCAASGFTFSSYGMHWVRQAPGKGLEWVAVIWYDGSNKNYADSVKGRFTISRDNSKNTLYLQMNSLRAEDTAMYYCARDQGVGYDGLDVWGQGTSVTVSS VL: DIQMTQSPSSLSASVGDRVTITCRASQGIGKYLAWFQQKPGKAPKSLIYAASSLQSGVPSKFSGSGSGTDFTLTISSLQPEDFATYYCQQYSTYPLTFGGGTKVEIK	-8	-8	-1
192C10 (antibody, V domains shown, hybridoma mAb) VH: QVQLVESGGGVVQPGRSLRLSCASSGFTFRNYGMHWVRQAPGKGLKWVAVIWFDGSNDYYADSVKGRFTISRDNSKNTLSLQMNSLRAEDTAVYYCARDRSVGYDGLDVWGQGTTVTVSS VL: DIQMTQSPSSLSASVGDRVTITCRASQGIGKYLAWFQQKPGKAPKSLIYAASSLQSGVPSKFSGSGSGTDFTLTISSLQPDDFATYYCQRYDTYPFTFGPGTKVDFK	-6	-6	-1
194C1 (antibody, V domains shown, hybridoma mAb) VH: QVQLVESGGGVVQPGRSLRLSCAASGFTFSSYGMHWVRQAPGKGLEWVAVIWYDGSNEHYADSVKGRFTISRDNSKNTLYLQMNSLRAEDTAVYYCARNRGVGYYGLDVWGQGTTVTVSS VL: DIQMTQSPSSLSASVGDRVTITCRASQGISNYLAWFQQKPGKAPKSLIYAASSLQSGVPSKFSGSGSGTDFTLTISSLQPEDFATYYCLHYLTYPLTFGGGTKVEIK	-8	-12	-7
192G8 (antibody, V domains shown, hybridoma mAb) VH: QVQLVESGGGVVQPGRSLRLSCAASGFTFSSYGMHWVRQAPGKGLEWVAVIWYDGSNKNYADSVKGRFTISRDNSKNTLYLQMNSLRAEDTAVYYCARDQGVGYDGLDVWGQGTTVTVSS VL: DIQMTQSPSSLSASVGDRVTITCRTSQGIGNYLAWFQQKPGKAPKSLLYKASSLQSGVPSKFSGSGSGTDFTLTISSLQPEDFATYYCQQYITYPLTFGGGTKVEIK	-6	-5	-1
192H10 (antibody, V domains shown, hybridoma mAb) VH: QVQLVESGGGVVQPGRSLRLSCAASGFTFSSYGMHWVRQAPGKGLEWVAVIWYDGSNKNYADSVKGRFTISRDNSKNTLYLQMNSLRAEDTAMYYCARDQGVGYDGLDVWGQGTSVTVSS VL: DIQMTQSPSSLSASVGDRVTITCRASQGIGKYLAWFQQKPGKAPKSLIYAASSLQSGVPSKFSGSGYGTDFTLTISSLQPENFATYYCQQYSTYPLTFGGGTKVEIK	-4	-5	0
190H9 (antibody, V domains shown, hybridoma mAb) VH: QVQLVESGGGVVQPGRSLRLSCAASGFTFRNYGMHWVRQAPGKGLEWVAVIWFDGSNDYYADSVKGRFTISRDNSKNTLSLQMNSLRAEDTAVYYCARDRSVGYDGLDVWGQGTTVTVSS VL: DIQMTQSPSSLSASVGDRVTITCRASQGIGKYLAWFQQKPGKALKSLIYAASSLQSGVPSKFSGSGSGTDFTLTISSLQPDDFATYYCQRYDTYPFTFGPGTKVDIK	-7	-6	-1

Second part, the binder after the results:

% Change Compared to pH 7.4 + Calcium [1] [%]	% Change Compared to pH 7.4 + Calcium [2] [%]	% Change Compared to pH 7.4 + Calcium [3] [%]	Binder
-3	-3	2	197G3 (antibody, V domains shown, hybridoma mAb) VH: QVQLVESGGGVVQPGRSLRLSCVASGFTFSSHGMHWVRQAPGKGLEWVAVIWYDGSNKNYADSVKGRFTISRDNSKNTLYLQMNSLRAEDTAVYYCARDPSVGYDGMDVWGQGTTVTVSS VL: DIQMTQSPSSLSASVGDRVTITCRASQGIGNHLAWFQQKPGKAPKSLIYAASSLQSGVPSKFSGSRSGTDFSLTISSLQPEDFATYYCQQYSNYPVTFGPGTKVDIK
-4	-5	-1	197E11 (antibody, V domains shown, hybridoma mAb) VH: QVQLVESGGGVVQPGRSLRLSCAASGFTFRNYGMHWVRQAPGKGLEWVAVIWFDGSNDYYADSVKGRFTISRDNSKNTLSLQMNSLRAEDTAVYYCARDRSVGYDGLDVWGQGTTVTVSS VL: DIQMTQSPSSLSASVGDRVTITCRASQGINKYLSWFQQKPGKAPKSLIYAASSVQSGVPSKFSGSGSGTDFTLTISRLQPDDFATYYGQRYDTYPFTFGPGTKVDIK
-7	-8	-1	197B6 (antibody, V domains shown, hybridoma mAb) VH: QVQLVESGGGVVQPGRSLRLSCAASGFTFSSYGMHWVRQAPGKGLEWVAVIWYDGSNKNYADSVKGRFTISRDNSKNMLYLQMNSLRAEDTAMYYCARDQGVGYDGLDVWGQGTSVTVSS VL: DIQMTQSPSSLSASVGDRVTITCRASQGIGKYLAWFQQKPGKAPKSLIYGASSLQSGVPSKFSGSGSGTDFTLTISSLQPENFATYYCQQYSTYPLTFGGGTKVEIK
-10	-11	-5	204G6 (antibody, V domains shown, hybridoma mAb) VH: QVQLVESGGGVVQPGRSLRLSCTASGFTFSSYGMHWVRQAPGKGLEWVAVIWYDGSNKNYADSVKGRFTISRDNSKNTLYLQMNSLRAEDTAVYYCARDRGVGYDGMDVWGQGTTVTVSS VL: DIRMTQSPSSLSASVGDRITITCRTSQGIGNYLAWFQQKPGKAPKSLIYAASSLQSGVPSRFSGSGSGTDFTLTISSLQPEDFATYYCQHYLSYPLTFGGGTKVEIK
-4	-4	-1	198G3 (antibody, V domains shown, hybridoma mAb) VH: QVQLVESGGGVVQPGRSLKLSCAASGFTFSTYGMHWVRQAPGKGLEWVAVIWYDGTNKNYADSVKGRFTISRDNSKNTLCLQMNSLRAEDTAVYYCARDQGVGYDGLDVWGQGTTVTVSS VL: DIQMAQSPSSLSASVGDRVTITCRTSQGIGKYLAWFQQKPGKAPKSLLYKASSLQGGVPSKFSGSGSGTDFTLTISSLQPEDFATYYCQQYMTYPLTFGGGTKVEIK
-12	-12	-8	196C7 (antibody, V domains shown, hybridoma mAb) VH: QVQLVESGGGVVQPGRSLRLSCAASGFTFSSYGMHWVRQAPGKGLEWVAVIWYDGSNEHYADSVKGRFTISRDNSKNTLYLQMNSLRAEDTAVYYCARDRGVGYYGLDVWGQGTTVTVSS VL: DIQMTQSPSSLSASVGDRVTITCRANQAISNYLAWFQQKPGKAPKSLIYAASSLQSGVPSKFSGSGSGTDFTLTISSLQPEDFATYYCQHYLTYPLTFGGGTKVEIK
-6	-6	0	197F2 (antibody, V domains shown, hybridoma mAb) VH: QVQLVESGGGVVQPGRSLRLSCAASGFTFSSYGMHWVRQAPGKGLEWVAVIWYDGSNKNYADSVKGRFTISRDNSKNTLYLQMNSLRAEDTAVYYCARDQGVGYDGLDVWGQGTTVTVSS VL: DIQMIQSPSSLSASVGDRVTITCRTSQGIGNYLAWFQQKPGKAPKSLLYKTSSLQSGVPSKFSGSGSGTDFTLTISSLQPEDFATYYFQQYITYPLTFGGGTKVEIK
